# Laboratory results taken from IntAct's records for PubMed 23602662.
# B1: Cell surface glycoprotein CD200 receptor 4 (Mus musculus), Q6XJV4 (parent)
# chain: MHALGRIPTLTLLIFINIFVSGSSCTDENQTIQNDSSSSLTQVNTTMSVQMDKKALLCCFSSPLINAVLITWIIKHRHLPSCTIAYNLDKKTNETSCLGRNITWASTPDHSPELQISAVALQHEGTYTCEIVTPEGNLEKVYDLQVLVPPEVTYFPGKNRTAVCEAMAGKPAAQISWTPDGDCVTKSESHSNGTVTVRSTCHWEQNNVSVVSCLVSHSTGNQSLSIELSQGTMTTPRSLLTILYVKMALLVIILLNVGFAFFQKRNFART
# partner: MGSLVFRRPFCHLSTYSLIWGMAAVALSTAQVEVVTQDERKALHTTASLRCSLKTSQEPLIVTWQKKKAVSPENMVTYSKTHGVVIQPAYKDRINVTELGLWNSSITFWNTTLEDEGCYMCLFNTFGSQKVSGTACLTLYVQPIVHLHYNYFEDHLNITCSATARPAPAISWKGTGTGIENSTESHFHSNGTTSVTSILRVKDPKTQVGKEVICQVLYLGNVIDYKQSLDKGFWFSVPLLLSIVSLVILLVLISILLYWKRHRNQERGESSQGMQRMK
# B2: OX-2 membrane glycoprotein (Mus musculus), O54901 (parent)
# chain: B1 partner
# partner: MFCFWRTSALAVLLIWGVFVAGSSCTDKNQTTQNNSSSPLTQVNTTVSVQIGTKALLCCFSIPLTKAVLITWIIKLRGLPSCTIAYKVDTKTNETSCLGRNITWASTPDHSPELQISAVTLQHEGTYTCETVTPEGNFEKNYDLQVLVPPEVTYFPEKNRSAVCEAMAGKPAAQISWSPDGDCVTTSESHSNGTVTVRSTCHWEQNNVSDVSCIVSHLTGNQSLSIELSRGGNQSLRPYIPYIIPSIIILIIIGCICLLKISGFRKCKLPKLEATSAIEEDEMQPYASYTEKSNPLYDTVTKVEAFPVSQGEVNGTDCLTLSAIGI
# Variants of: B1
# Conditions: with ox2g_mouse Cd200, O54901
row,Variant,effect of a mutation on the interaction
1,MHALGRIPTLTLLIFINIFVSGSSCTDENQTIQNDSSSSLTQVNTTMSVQMDKKALLCCFSSPLINAVLITWIIKHRHLPSCTIAYKLDTKTNETSCLGRNITWASTPDHSPELQISAVALQHEGTYTCEIVTPEGNLEKVYDLQVLVPPEVTYFPGKNRTAVCEAMAGKPAAQISWTPDGDCVTKSESHSNGTVTVRSTCHWEQNNVSVVSCLVSHSTGNQSLSIELSQGTMTTPRSLLTILYVKMALLVIILLNVGFAFFQKRNFART [N87K;K90T],increasing interaction strength
2,MHALGRIPTLTLLIFINIFVSGSSCTDENQTIQNDSSSSLTQVNTTMSVQMDKKALLCCFSSPLINAVLITWIIKHRHLPSCTIAYKLDTKTNETSCLGRNITWASTPDHSPELQISAVALQHEGTYTCEIVTPEGNFEKVYDLQVLVPPEVTYFPGKNRTAVCEAMAGKPAAQISWTPDGDCVTKSESHSNGTVTVRSTCHWEQNNVSVVSCLVSHSTGNQSLSIELSQGTMTTPRSLLTILYVKMALLVIILLNVGFAFFQKRNFART [N87K;K90T;L138F],increasing interaction strength
3,MHALGRIPTLTLLIFINIFVSGSSCTDENQTIQNDSSSSLTQVNTTMSVQMDKKALLCCFSSPLINAVLITWIIKHRHLPSCTIAYNLDKKTNETSCLGRNITWASTPDHSPELQISAVALQHEGTYTCEIVTPEGNFEKVYDLQVLVPPEVTYFPGKNRTAVCEAMAGKPAAQISWTPDGDCVTKSESHSNGTVTVRSTCHWEQNNVSVVSCLVSHSTGNQSLSIELSQGTMTTPRSLLTILYVKMALLVIILLNVGFAFFQKRNFART [L138F],increasing interaction strength

# Variants of: B2
# Conditions: with mo2r1_mouse Cd200r1, Q9ES57
row,Variant,effect of a mutation on the interaction
1,MGSLVFRRPFCHLSTYSLIWGMAAVALSTAQVEVVTQDERKALHTTASLRCSLKTSQEPLIVTWQKKKAVSPENMVTYSKTHGVVIQPAYKDRINVTELGLWNSSITFWNTTLEDEGCYMCLFNTAGSQKVSGTACLTLYVQPIVHLHYNYFEDHLNITCSATARPAPAISWKGTGTGIENSTESHFHSNGTTSVTSILRVKDPKTQVGKEVICQVLYLGNVIDYKQSLDKGFWFSVPLLLSIVSLVILLVLISILLYWKRHRNQERGESSQGMQRMK [F126A],disrupting interaction strength
2,MGSLVFRRPFCHLSTYSLIWGMAAVALSTAQVEVVTQDERKALHTTASLRCSLKTSQEPLIVTWQKKKAVSPENMVTYSKTHGVVIQPAYKDRINVTELGLWNSSITFWNTTLEDEGCYMCAFNTFGSQKVSGTACLTLYVQPIVHLHYNYFEDHLNITCSATARPAPAISWKGTGTGIENSTESHFHSNGTTSVTSILRVKDPKTQVGKEVICQVLYLGNVIDYKQSLDKGFWFSVPLLLSIVSLVILLVLISILLYWKRHRNQERGESSQGMQRMK [L122A],disrupting interaction strength
3,MGSLVFRRPFCHLSTYSLIWGMAAVALSTAQVEVVTQDERKALHTTASLRCSLKTSQEPLEVTWQKKKAVSPENMVTYSKTHGVVIQPAYKDRINVTELGLWNSSITFWNTTLEDEGCYMCLFNTFGSQKVSGTACLTLYVQPIVHLHYNYFEDHLNITCSATARPAPAISWKGTGTGIENSTESHFHSNGTTSVTSILRVKDPKTQVGKEVICQVLYLGNVIDYKQSLDKGFWFSVPLLLSIVSLVILLVLISILLYWKRHRNQERGESSQGMQRMK [I61E],disrupting interaction strength
4,MGSLVFRRPFCHLSTYSLIWGMAAVALSTAQVEVVTQDERKALHTTASLRCSLKTSQEPKIVTWQKKKAVSPENMVTYSKTHGVVIQPAYKDRINVTELGLWNSSITFWNTTLEDEGCYMCLFNTFGSQKVSGTACLTLYVQPIVHLHYNYFEDHLNITCSATARPAPAISWKGTGTGIENSTESHFHSNGTTSVTSILRVKDPKTQVGKEVICQVLYLGNVIDYKQSLDKGFWFSVPLLLSIVSLVILLVLISILLYWKRHRNQERGESSQGMQRMK [L60K],disrupting interaction strength
5,MGSLVFRRPFCHLSTYSLIWGMAAVALSTAQVEVVTQDERKALHTTASLRCSLKTSQEPLIVTWQKKKAVSPEAMVTYSKTHGVVIQPAYKDRINVTELGLWNSSITFWNTTLEDEGCYMCLFNTFGSQKVSGTACLTLYVQPIVHLHYNYFEDHLNITCSATARPAPAISWKGTGTGIENSTESHFHSNGTTSVTSILRVKDPKTQVGKEVICQVLYLGNVIDYKQSLDKGFWFSVPLLLSIVSLVILLVLISILLYWKRHRNQERGESSQGMQRMK [N74A],disrupting interaction strength
6,MGSLVFRRPFCHLSTYSLIWGMAAVALSTAQVEVVTQDERKALHTTASLRCSLKTSQEPLIVTWQKKKAVSPENMVTYSKTHGVVIQPAYKDRINVTELGLWNSSITFWNTTLEDEGCYMCLFNTDGSQKVSGTACLTLYVQPIVHLHYNYFEDHLNITCSATARPAPAISWKGTGTGIENSTESHFHSNGTTSVTSILRVKDPKTQVGKEVICQVLYLGNVIDYKQSLDKGFWFSVPLLLSIVSLVILLVLISILLYWKRHRNQERGESSQGMQRMK [F126D],disrupting interaction strength
7,MGSLVFRRPFCHLSTYSLIWGMAAVALSTAQVEVVTQDERKALHTTASLRCSLKTSQEPLIVTWQKKKAVSPEDMVTYSKTHGVVIQPAYKDRINVTELGLWNSSITFWNTTLEDEGCYMCLFNTFGSQKVSGTACLTLYVQPIVHLHYNYFEDHLNITCSATARPAPAISWKGTGTGIENSTESHFHSNGTTSVTSILRVKDPKTQVGKEVICQVLYLGNVIDYKQSLDKGFWFSVPLLLSIVSLVILLVLISILLYWKRHRNQERGESSQGMQRMK [N74D],disrupting interaction strength
8,MGSLVFRRPFCHLSTYSLIWGMAAVALSTAQVEVVTQDERKALHTTASLRCSLKTSQEPLIVTWQKKKAVSPENMVTYSKTHGVVIQPAYKDRINVTELGLWNSSITFWNTTLEDEGCYMCLFNTFGSQEVSGTACLTLYVQPIVHLHYNYFEDHLNITCSATARPAPAISWKGTGTGIENSTESHFHSNGTTSVTSILRVKDPKTQVGKEVICQVLYLGNVIDYKQSLDKGFWFSVPLLLSIVSLVILLVLISILLYWKRHRNQERGESSQGMQRMK [K130E],disrupting interaction strength
9,MGSLVFRRPFCHLSTYSLIWGMAAVALSTAQVEVVTQDERKALHTTASLRCSLKTSQEPLIVTWQKKKAVSPENMVTYSKTHGVVIQPAYKDRINVTELGLWNSSITFWNTTLEDEGCYMCLFKTFGSQKVSGTACLTLYVQPIVHLHYNYFEDHLNITCSATARPAPAISWKGTGTGIENSTESHFHSNGTTSVTSILRVKDPKTQVGKEVICQVLYLGNVIDYKQSLDKGFWFSVPLLLSIVSLVILLVLISILLYWKRHRNQERGESSQGMQRMK [N124K],disrupting interaction strength
